Assay results published in US20240316154A1 (Eli Lilly, published 2024).
Where two headings read alike, the source gives them in different places. Each block holds one binder with its values, some of them ahead of it.

Columns and labels:
Rabbit serum albumin [1] = biological target: T1, Rabbit serum albumin (rabbit, UniProt P49065 25-608); assay: SPR, SA on chip, 25 C
T1 construct: bought; immobilised on a CM5 chip by amine coupling; also called Rabbit SA
Experimental: (§1) Human SA is obtained from Sigma Aldrich (Cat. No. A8763). […] Mouse SA is obtained from Sigma Aldrich (Cat. No. A3139). Rat SA is obtained from Sigma Aldrich (Cat. No. A4538). Pig SA is obtained from Sigma Aldrich (Cat. No. A4414). […] Cow SA is obtained from Sigma Aldrich (Cat. No. A7030). […] Excess reactive groups on the surfaces (flow cell 1 and 2) are deactivated by injecting 70 μl of 1 M Ethanolamine hydrochloride-NaOH pH 8.5.
(§2) 180 μl of sample are individually injected sequentially across the immobilized SAs on the chip's surface and dissociated for 600 sec at 60 μl/min flow rate at 25° C.

Cow serum albumin [2] = biological target: T2, Cow serum albumin (cow, UniProt P02769 25-607); assay: SPR, SA on chip, 25 C; ka and kd printed as *not applicable
T2 construct: bought; immobilised on a CM5 chip by amine coupling; also called Cow SA
Experimental: as §1, §2

[3] = biological target: human GFRAL and human RET on HEK293 cells (human, UniProt Q6UXV0 19-394; P07949 29-1114); assay: cell-based or functional assay
Rat serum albumin [4] = biological target: T3, Rat serum albumin (rat, UniProt P02770 25-608); assay: SPR, SA on chip, 1:1 fit, 25 C
T3 construct: bought; immobilised on a CM5 chip by amine coupling; also called Rat SA
Experimental: as §1, §2

Mouse serum albumin [5] = biological target: T4, Mouse serum albumin (mouse, UniProt P07724 25-608); assay: SPR, SA on chip, 1:1 fit, 25 C
T4 construct: bought; immobilised on a CM5 chip by amine coupling; also called Mouse SA
Experimental: as §1, §2

Human serum albumin [6] = biological target: T5, Human serum albumin (human, UniProt P02768 25-609); assay: SPR, SA on chip, 1:1 fit, 25 C
T5 construct: bought; immobilised on a CM5 chip by amine coupling; also called Human SA
Experimental: as §1, §2

Pig serum albumin [7] = biological target: T6, Pig serum albumin (pig, UniProt P08835 25-607); assay: SPR, SA on chip, 1:1 fit, 25 C
T6 construct: bought; immobilised on a CM5 chip by amine coupling; also called Pig SA
Experimental: as §1, §2

Dog serum albumin [8] = biological target: T7, Dog serum albumin (dog, UniProt P49822 25-608); assay: SPR, SA on chip, 1:1 fit, 25 C
T7 construct: bought; immobilised on a CM5 chip by amine coupling; also called Dog SA
Experimental: as §1, §2

[9] = biological target: T8, Cynomolgus monkey serum albumin (cynomolgus monkey, UniProt A2V9Z4 25-608); assay: SPR, SA on chip, 1:1 fit, 25 C
T8 construct: bought; immobilised on a CM5 chip by amine coupling; also called Cyno SA
Experimental: as §1, §2

Cow serum albumin [10] = biological target: T2, Cow serum albumin; assay: SPR, SA on chip, 1:1 fit, 25 C
Experimental: as §1, §2

Rat serum albumin [11] = biological target: T3, Rat serum albumin; assay: SPR, SA on chip, 1:1 fit, 25 C; remark: listed apart in the source
Experimental: as §1, §2

Mouse serum albumin [12] = biological target: T4, Mouse serum albumin; assay: SPR, SA on chip, 1:1 fit, 25 C; remark: listed apart in the source
Experimental: as §1, §2

Human serum albumin [13] = biological target: T5, Human serum albumin; assay: SPR, SA on chip, 1:1 fit, 25 C; remark: listed apart in the source
Experimental: as §1, §2

Pig serum albumin [14] = biological target: T6, Pig serum albumin; assay: SPR, SA on chip, 1:1 fit, 25 C; remark: listed apart in the source
Experimental: as §1, §2

Dog serum albumin [15] = biological target: T7, Dog serum albumin; assay: SPR, SA on chip, 1:1 fit, 25 C; remark: listed apart in the source
Experimental: as §1, §2

[16] = biological target: T8, Cynomolgus monkey serum albumin; assay: SPR, SA on chip, 1:1 fit, 25 C; remark: listed apart in the source
Experimental: as §1, §2

[17] = biological target: IL-2 receptor-dimer pair of the PathHunter IL-2 BioAssay cells; assay: cell-based or functional assay
Rabbit serum albumin [18] = biological target: T1, Rabbit serum albumin; assay: SPR, SA on chip, 25 C; remark: listed apart in the source
Experimental: as §1, §2

Rabbit serum albumin [19] = biological target: T1, Rabbit serum albumin; assay: SPR, SA on chip, 25 C; remark: listed apart in the source
Experimental: as §1, §2

Cow serum albumin [20] = biological target: T2, Cow serum albumin; assay: SPR, SA on chip, 1:1 fit, 25 C; remark: listed apart in the source
Experimental: as §1, §2

Rat serum albumin [21] = biological target: T3, Rat serum albumin; assay: SPR, SA on chip, 1:1 fit, 25 C; remark: listed apart in the source
Experimental: as §1, §2

Mouse serum albumin [22] = biological target: T4, Mouse serum albumin; assay: SPR, SA on chip, 1:1 fit, 25 C; remark: listed apart in the source
Experimental: as §1, §2

Human serum albumin [23] = biological target: T5, Human serum albumin; assay: SPR, SA on chip, 1:1 fit, 25 C; remark: listed apart in the source
Experimental: as §1, §2

Pig serum albumin [24] = biological target: T6, Pig serum albumin; assay: SPR, SA on chip, 1:1 fit, 25 C; remark: listed apart in the source
Experimental: as §1, §2

Dog serum albumin [25] = biological target: T7, Dog serum albumin; assay: SPR, SA on chip, 1:1 fit, 25 C; remark: listed apart in the source
Experimental: as §1, §2

[26] = biological target: T8, Cynomolgus monkey serum albumin; assay: SPR, SA on chip, 1:1 fit, 25 C; remark: listed apart in the source
Experimental: as §1, §2

Rabbit serum albumin [27] = biological target: T1, Rabbit serum albumin; assay: SPR, SA on chip, 25 C; remark: listed apart in the source
Experimental: as §1, §2

Cow serum albumin [28] = biological target: T2, Cow serum albumin; assay: SPR, SA on chip, 1:1 fit, 25 C; remark: listed apart in the source
Experimental: as §1, §2

Rat serum albumin [29] = biological target: T3, Rat serum albumin; assay: SPR, SA on chip, 1:1 fit, 25 C; remark: listed apart in the source
Experimental: as §1, §2

Mouse serum albumin [30] = biological target: T4, Mouse serum albumin; assay: SPR, SA on chip, 1:1 fit, 25 C; remark: listed apart in the source
Experimental: as §1, §2

Human serum albumin [31] = biological target: T5, Human serum albumin; assay: SPR, SA on chip, 1:1 fit, 25 C; remark: listed apart in the source
Experimental: as §1, §2

Pig serum albumin [32] = biological target: T6, Pig serum albumin; assay: SPR, SA on chip, 1:1 fit, 25 C; remark: listed apart in the source
Experimental: as §1, §2

Dog serum albumin [33] = biological target: T7, Dog serum albumin; assay: SPR, SA on chip, 1:1 fit, 25 C; remark: listed apart in the source
Experimental: as §1, §2

[34] = biological target: T8, Cynomolgus monkey serum albumin; assay: SPR, SA on chip, 1:1 fit, 25 C; remark: listed apart in the source
Experimental: as §1, §2

B1: VHH-based fusion of Example 5, VHH fusion 5 (MC6.1C22-(G4Q)5-GDF15) (other)
chain: EVQLLESGGGLVQPGGSLRLSCAASGRYIDETAVAWFRQAPGKEREFVAGIGGGVDITYYADSVKGRFTISRDNSKNTLYLQMNSLRPEDTAVYYCAARPGRPLITSKVADLYPYWGQGTLVTVSSGGGGQGGGGQGGGGQGGGGQGGGGQGDHCPLGPGRCCRLHTVRASLEDLGWADWVLSPREVQVTMCIGACPSQFRAANMHAQIKTSLHRLKPDTVPAPCCVPASYNPMVLIQKTDTGVSLQTYDDLLAKDCHCI
notes: also called Compound 5; VHH-GDF15 fusion
- binding result (Rabbit serum albumin [1]): no binding (tested: up to 1000 nM)
- Kd (Cow serum albumin [2]): 28 nM
- hGFRAL/RET EC50 (pM), p-ERK1/2 AlphaLISA [3]: 101 pM
- Kd (Rat serum albumin [4]): 0.74 nM
- koff (Rat serum albumin [4]): 0.00077 s⁻¹
- kon (Rat serum albumin [4]): 1e+06 M⁻¹ s⁻¹
- Kd (Mouse serum albumin [5]): 0.86 nM
- koff (Mouse serum albumin [5]): 0.0012 s⁻¹
- kon (Mouse serum albumin [5]): 1.4e+06 M⁻¹ s⁻¹
- Kd (Human serum albumin [6]): 0.2 nM
- koff (Human serum albumin [6]): 0.00014 s⁻¹
- kon (Human serum albumin [6]): 670000 M⁻¹ s⁻¹
- Kd (Pig serum albumin [7]): 3.3 nM
- koff (Pig serum albumin [7]): 0.0028 s⁻¹
- kon (Pig serum albumin [7]): 850000 M⁻¹ s⁻¹
- Kd (Dog serum albumin [8]): 0.6 nM
- koff (Dog serum albumin [8]): 0.00068 s⁻¹
- kon (Dog serum albumin [8]): 1.1e+06 M⁻¹ s⁻¹
- Kd [9]: 0.45 nM
- koff [9]: 0.00034 s⁻¹
- kon [9]: 740000 M⁻¹ s⁻¹

B2: VHH-based fusion of Example 6, VHH fusion 6 (IL2-(G4Q)5-MC6.1C22.43) (other)
chain: APQSSSTQQTQLQLEHLLLDLQMILNGINNYKNPKLTRMLTFKFYMPKKATELKHLQCLEEELKPLEEVLNLAQSKNFHLRPRDLISRINVIVLELKGSETTFMCEYADETATIVEFLNRWITFAQSIISTLTGGGGQGGGGQGGGGQGGGGQGGGGQEVQLLESGGGLVQPGGSLRLSCAASGRYIDETAVAWFRQAPGKEREFVAGIGGGVDITYYADSVKGRFTISRDNSKNTLYLQMNSLRPEDTAVYYCAARPGRPLITSKVADLYPYWGQGTLVTVSSPP
notes: also called Compound 6; IL-2-VHH fusion
- Kd (Cow serum albumin [10]): 380 nM
- koff (Cow serum albumin [10]): 0.071 s⁻¹
- kon (Cow serum albumin [10]): 190000 M⁻¹ s⁻¹
- Kd (Rat serum albumin [11]): 34 nM
- koff (Rat serum albumin [11]): 0.0066 s⁻¹
- kon (Rat serum albumin [11]): 190000 M⁻¹ s⁻¹
- Kd (Mouse serum albumin [12]): 50 nM
- koff (Mouse serum albumin [12]): 0.0087 s⁻¹
- kon (Mouse serum albumin [12]): 170000 M⁻¹ s⁻¹
- Kd (Human serum albumin [13]): 1.5 nM
- koff (Human serum albumin [13]): 0.00026 s⁻¹
- kon (Human serum albumin [13]): 180000 M⁻¹ s⁻¹
- Kd (Pig serum albumin [14]): 100 nM
- koff (Pig serum albumin [14]): 0.012 s⁻¹
- kon (Pig serum albumin [14]): 120000 M⁻¹ s⁻¹
- Kd (Dog serum albumin [15]): 19 nM
- koff (Dog serum albumin [15]): 0.0034 s⁻¹
- kon (Dog serum albumin [15]): 170000 M⁻¹ s⁻¹
- Kd [16]: 5 nM
- koff [16]: 0.00088 s⁻¹
- kon [16]: 180000 M⁻¹ s⁻¹
- EC50 (nM), PathHunter IL-2 BioAssay [17]: 6.7 nM
- binding result (Rabbit serum albumin [18]): no binding (tested: up to 1000 nM)

More lines, now with the values ahead:

- binding result (Rabbit serum albumin [19]): no binding (tested: up to 1000 nM)
- EC50 (nM), PathHunter IL-2 BioAssay [17]: 0.49 nM
- Kd (Cow serum albumin [20]): 78 nM
- koff (Cow serum albumin [20]): 0.052 s⁻¹
- kon (Cow serum albumin [20]): 670000 M⁻¹ s⁻¹
- Kd (Rat serum albumin [21]): 3 nM
- koff (Rat serum albumin [21]): 0.0029 s⁻¹
- kon (Rat serum albumin [21]): 970000 M⁻¹ s⁻¹
- Kd (Mouse serum albumin [22]): 3.9 nM
- koff (Mouse serum albumin [22]): 0.0038 s⁻¹
- kon (Mouse serum albumin [22]): 970000 M⁻¹ s⁻¹
- Kd (Human serum albumin [23]): 0.23 nM
- koff (Human serum albumin [23]): 0.00021 s⁻¹
- kon (Human serum albumin [23]): 910000 M⁻¹ s⁻¹
- Kd (Pig serum albumin [24]): 13 nM
- koff (Pig serum albumin [24]): 0.0058 s⁻¹
- kon (Pig serum albumin [24]): 450000 M⁻¹ s⁻¹
- Kd (Dog serum albumin [25]): 1.8 nM
- koff (Dog serum albumin [25]): 0.0016 s⁻¹
- kon (Dog serum albumin [25]): 920000 M⁻¹ s⁻¹
- Kd [26]: 0.39 nM
- koff [26]: 0.00056 s⁻¹
- kon [26]: 1.4e+06 M⁻¹ s⁻¹
B3: VHH-based fusion of Example 7, VHH fusion 7 (MC6.1C22-(G4Q)5-IL2) (other)
chain: EVQLLESGGGLVQPGGSLRLSCAASGRYIDETAVAWFRQAPGKEREFVAGIGGGVDITYYADSVKGRFTISRDNSKNTLYLQMNSLRPEDTAVYYCAARPGRPLITSKVADLYPYWGQGTLVTVSSGGGGQGGGGQGGGGQGGGGQGGGGQAPQSSSTQQTQLQLEHLLLDLQMILNGINNYKNPKLTRMLTFKFYMPKKATELKHLQCLEEELKPLEEVLNLAQSKNFHLRPRDLISRINVIVLELKGSETTFMCEYADETATIVEFLNRWITFAQSIISTLT
notes: also called Compound 7; VHH-IL-2 fusion

- binding result (Rabbit serum albumin [27]): no binding (tested: up to 1000 nM)
- Kd (Cow serum albumin [28]): 120 nM
- koff (Cow serum albumin [28]): 0.093 s⁻¹
- kon (Cow serum albumin [28]): 800000 M⁻¹ s⁻¹
- Kd (Rat serum albumin [29]): 11 nM
- koff (Rat serum albumin [29]): 0.0071 s⁻¹
- kon (Rat serum albumin [29]): 660000 M⁻¹ s⁻¹
- Kd (Mouse serum albumin [30]): 18 nM
- koff (Mouse serum albumin [30]): 0.01 s⁻¹
- kon (Mouse serum albumin [30]): 560000 M⁻¹ s⁻¹
- Kd (Human serum albumin [31]): 0.15 nM
- koff (Human serum albumin [31]): 0.00011 s⁻¹
- kon (Human serum albumin [31]): 720000 M⁻¹ s⁻¹
- Kd (Pig serum albumin [32]): 27 nM
- koff (Pig serum albumin [32]): 0.013 s⁻¹
- kon (Pig serum albumin [32]): 490000 M⁻¹ s⁻¹
- Kd (Dog serum albumin [33]): 5.4 nM
- koff (Dog serum albumin [33]): 0.0038 s⁻¹
- kon (Dog serum albumin [33]): 710000 M⁻¹ s⁻¹
- Kd [34]: 0.96 nM
- koff [34]: 0.00087 s⁻¹
- kon [34]: 910000 M⁻¹ s⁻¹
B4: VHH-based fusion of Example 8, VHH fusion 8 (GLP1-(G4Q)5-MC6.1C22.43) (other)
chain: HGEGTFTSDVSSYLEEQAAKEFIAWLVKGGGGGGGQGGGGQGGGGQGGGGQGGGGQEVQLLESGGGLVQPGGSLRLSCAASGRYIDETAVAWFRQAPGKEREFVAGIGGGVDITYYADSVKGRFTISRDNSKNTLYLQMNSLRPEDTAVYYCAARPGRPLITSKVADLYPYWGQGTLVTVSSPP
notes: also called Compound 8; GLP-1-VHH fusion
